B1: SUN domain-containing protein 2 (Homo sapiens), Q9UH99 (parent)
chain: MSRRSQRLTRYSQGDDDGSSSSGGSSVAGSQSTLFKDSPLRTLKRKSSNMKRLSPAPQLGPSSDAHTSYYSESLVHESWFPPRSSLEELHGDANWGEDLRVRRRRGTGGSESSRASGLVGRKATEDFLGSSSGYSSEDDYVGYSDVDQQSSSSRLRSAVSRAGSLLWMVATSPGRLFRLLYWWAGTTWYRLTTAASLLDVFVLTRRFSSLKTFLWFLLPLLLLTCLTYGAWYFYPYGLQTFHPALVSWWAAKDSRRPDEGWEARDSSPHFQAEQRVMSRVHSLERRLEALAAEFSSNWQKEAMRLERLELRQGAPGQGGGGGLSHEDTLALLEGLVSRREAALKEDFRRETAARIQEELSALRAEHQQDSEDLFKKIVRASQESEARIQQLKSEWQSMTQESFQESSVKELRRLEDQLAGLQQELAALALKQSSVAEEVGLLPQQIQAVRDDVESQFPAWISQFLARGGGGRVGLLQREEMQAQLRELESKILTHVAEMQGKSAREAAASLSLTLQKEGVIGVTEEQVHHIVKQALQRYSEDRIGLADYALESGGASVISTRCSETYETKTALLSLFGIPLWYHSQSPRVILQPDVHPGNCWAFQGPQGFAVVRLSARIRPTAVTLEHVPKALSPNSTISSAPKDFAIFGFDEDLQQEGTLLGKFTYDQDGEPIQTFHFQAPTMATYQVVELRILTNWGHPEYTCIYRFRVHGEPAH

Variants of: B1
Details: with copb_human COPB1, P53618
Sequence of copb_human COPB1, P53618 (P53618 whole entry): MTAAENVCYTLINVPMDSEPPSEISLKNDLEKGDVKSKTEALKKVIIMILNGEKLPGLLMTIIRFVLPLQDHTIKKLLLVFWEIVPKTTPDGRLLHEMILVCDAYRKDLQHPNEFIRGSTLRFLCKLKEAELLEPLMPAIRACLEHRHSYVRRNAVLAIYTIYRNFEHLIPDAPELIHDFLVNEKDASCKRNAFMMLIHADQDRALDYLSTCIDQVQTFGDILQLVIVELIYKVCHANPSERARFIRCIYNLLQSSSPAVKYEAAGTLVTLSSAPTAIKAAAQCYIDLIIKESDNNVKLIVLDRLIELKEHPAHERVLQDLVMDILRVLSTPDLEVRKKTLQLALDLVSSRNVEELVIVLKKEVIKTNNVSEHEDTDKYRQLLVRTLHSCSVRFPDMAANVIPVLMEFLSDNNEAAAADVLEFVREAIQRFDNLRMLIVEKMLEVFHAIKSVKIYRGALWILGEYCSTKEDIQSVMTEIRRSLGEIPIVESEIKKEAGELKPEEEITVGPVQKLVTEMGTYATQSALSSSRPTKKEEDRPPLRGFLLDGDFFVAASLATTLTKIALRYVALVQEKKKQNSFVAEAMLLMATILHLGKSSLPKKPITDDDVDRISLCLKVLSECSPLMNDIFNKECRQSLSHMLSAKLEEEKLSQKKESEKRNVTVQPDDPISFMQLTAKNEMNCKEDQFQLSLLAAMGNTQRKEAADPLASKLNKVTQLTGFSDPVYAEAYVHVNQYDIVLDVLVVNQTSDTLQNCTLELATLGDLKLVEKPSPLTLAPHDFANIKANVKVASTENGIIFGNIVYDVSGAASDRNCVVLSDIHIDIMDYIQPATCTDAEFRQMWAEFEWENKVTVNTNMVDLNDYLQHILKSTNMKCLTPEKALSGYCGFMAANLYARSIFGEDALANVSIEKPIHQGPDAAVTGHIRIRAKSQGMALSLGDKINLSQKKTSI

Effect of a mutation on the interaction, disrupting interaction:
R41A
R45A
K51A
K46A
K44A
R52A
R102A;R103A;R104A;R105A

From IntAct's records for PubMed 20551905
